# According to patent publication US20250346673A1 (DUALITY BIOLOGICS SUZHOU, published 2025):
# Where a chain is given by its changes, count along the chain named.
# T1: human BDCA2 (human, UniProt Q8WTT0 1-213)
# T1 construct: whole, on cells; also called hBDCA2; Blood dendritic cell antigen 2
# T1 sequence (looked up): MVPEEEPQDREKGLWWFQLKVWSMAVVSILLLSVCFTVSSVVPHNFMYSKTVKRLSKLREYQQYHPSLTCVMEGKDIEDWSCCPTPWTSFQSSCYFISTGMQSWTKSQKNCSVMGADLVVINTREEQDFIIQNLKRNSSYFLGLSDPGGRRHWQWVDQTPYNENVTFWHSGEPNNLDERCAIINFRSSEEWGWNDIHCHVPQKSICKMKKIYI
# T2: cynomolgus BDCA2 (cynomolgus monkey, UniProt A0A2K5UWP4 1-212)
# T2 construct: whole, on cells; also called Cyno BDCA2; cynoBDCA2
# T2 sequence: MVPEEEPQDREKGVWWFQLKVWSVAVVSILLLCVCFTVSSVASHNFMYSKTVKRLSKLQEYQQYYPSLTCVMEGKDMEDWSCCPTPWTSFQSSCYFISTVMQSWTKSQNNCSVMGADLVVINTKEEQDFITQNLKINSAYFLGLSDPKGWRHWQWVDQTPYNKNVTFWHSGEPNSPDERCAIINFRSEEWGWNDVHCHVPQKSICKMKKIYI
# B1: mAb024 (antibody, V domains shown)
# VH: EVQLVESGGDLVKPGGSLKLSCAASGFTFSSFGMSWVRQTPDKRLDWVATISSGDSYTYYPDSVKGRFSISRDNAKNTLYLQMSSLKSEDTAVYYCARQIYYDYAYYFDYWGQGTTLTVSS
# VL: DIVLTQSPASLAVSLGQRATISCRASESVSFRSSHLMHWYRQKPGQPPKLLIYAASNLESGVPARFSGSGSETDFTLNIHPVEEEDAAAYFCQQSIEDPPTFGGGTKLEIK
# notes: Mouse hybridoma antibody
# B2: mAb020 (antibody, V domains shown)
# VH: DVQLQESGPGLVKPSQSLSLTCSVTGYSIASGYYWNWIRQFPGNKLEWMGYISFDGTYNYNPSLKDRFSITRDTSKNQFFLKLNSVTTEDTATYYCARGVDYPNAIDWWGQGTSVTVSS
# VL: B1 VL with F31M, R32H, S33V, S34T, M37I, R41Q, A54V, A89T, I96F, P100W
# notes: Mouse hybridoma antibody
# B3: mAb022 (antibody, V domains shown)
# VH: B2 VH with A30T, N104K, I106M
# VL: B1 VL with F31M, R32H, S33V, S34T, M37I, R41Q, A54V, A89T, I96F, P100W
# notes: Mouse hybridoma antibody
# B4: mAb019 (antibody, V domains shown)
# VH: EVKLVESGGDLVQPGGSLKLSCAASGFTFSDYYMYWVRQTPEKRLEWVAYISYSGDSTYYPDTVKGRFTISRDNAKNTLFLQMSRLKSEDTAMYYCARHSPSFPYYFDYWGQGTALTVSS
# VL: EIVLTQSPAITAASLGQKVTITCSASSSVSYMHWYQQKSGTSPKPWIYEISKLASGVPARFSGSGSGTSYSLTISSMEAEDAAIYYCQLWNYPLITFGGGTNLEIK
# notes: Mouse hybridoma antibody
# B5: mAb021 (antibody, V domains shown)
# VH: DVQLQESGPGLVKPSQSLSLTCSVTGYSITSAYYWNWIRQFPGNKLECMGYITYDGNNYYSPSLKNRISITRDTSKNQFFLNLNSVTTEDTATYFCARGGDYDDGGFAFWGQGTLVTVSA
# VL: DIQMTQSPASLSASVGETVTITCRASGNIHNYLAWYHQKQGKSPQLLVYNAKSLVDGVPSRFSGSGSGTQYSLRINSLQPEDFGSYYCQHFWIVPYTFGGGTKLEII
# notes: Mouse hybridoma antibody
# B6: mAb030 (antibody, V domains shown)
# VH: B5 VH with T53S, N57S, S61N, N82S, A97V, F109Y
# VL: B5 VL with H37Q, S53T, V55A, G68E, R74K, S85N, Y87F, V94I, I107K
# notes: Mouse hybridoma antibody
# B7: mAb027 (antibody, V domains shown)
# VH: B5 VH with I38V, K45Q, N57S, Y59N, S61N, N82K, F95Y, A97V, F109Y
# VL: B5 VL with H37Q, S53T, Q70E, R74K, S85I, Y87F, V94I, I107R
# notes: Mouse hybridoma antibody
# B8: mab020c (antibody, V domains shown)
# VH: B2 VH
# VL: B1 VL with F31M, R32H, S33V, S34T, M37I, R41Q, A54V, A89T, I96F, P100W
# B9: mab024c (antibody, V domains shown)
# VH: B1 VH
# VL: B1 VL
# B10: mab022c (antibody, V domains shown)
# VH: B2 VH with A30T, N104K, I106M
# VL: B1 VL with F31M, R32H, S33V, S34T, M37I, R41Q, A54V, A89T, I96F, P100W
# B11: mab019c (antibody, V domains shown)
# VH: B4 VH
# VL: B4 VL
# B12: mab021c (antibody, V domains shown)
# VH: B5 VH
# VL: B5 VL
# B13: mab030c (antibody, V domains shown)
# VH: B5 VH with T53S, N57S, S61N, N82S, A97V, F109Y
# VL: B5 VL with H37Q, S53T, V55A, G68E, R74K, S85N, Y87F, V94I, I107K
# B14: mab027c (antibody, V domains shown)
# VH: B5 VH with I38V, K45Q, N57S, Y59N, S61N, N82K, F95Y, A97V, F109Y
# VL: B5 VL with H37Q, S53T, Q70E, R74K, S85I, Y87F, V94I, I107R
# Target: T1, human BDCA2
# Assay: FACS on CHOK1-hBDCA2 cells; EC50 table under the plot, unit from the x axis (nM) [continued) d.]
# Procedure: (§1) The cells were recovered and resuspended to 2×10⁶/mL with FACS buffer (PBS+2% FBS). The cells were added to 3799 cell plates (Corning) at 100 μL/well, and the supernatant was discarded after centrifugation at 300 g. The antibodies were serially diluted with FACS buffer (Id.), the diluted antibodies were added to centrifuged cells and the cells were resuspended. The cells were incubated at 4° C. for 1 h. The incubated cells were then centrifuged at […] for 5 min and washed twice with FACS buffer. 100 μL Donkey anti-Mouse IgG (H+L) Highly Cross-Adsorbed Secondary Antibody-Alexa Fluor 488 (Invitrogen, A21202; 1:1000) secondary antibody was added to the cells, which were washed twice with FACS buffer after incubation at 4° C. for 1 h, resuspended with PBS, analyzed with FACS (BD FACS CantoTM II) instrument. The curve was fitted with GraphPad Prism6, and EC₅₀ values were calculated.
row,EC50 [nM],Binder
1,0.343,B1
2,0.707,B2
3,0.723,B3
4,0.271,B4
5,0.328,B5
6,0.293,B6
7,0.302,B7

# Target: T1, human BDCA2
# Assay: FACS on CHOK1-hBDCA2 cells; EC50 table beside the plot, unit from the x axis (nM) [continued) c.]
# Procedure: The cells were recovered and resuspended to 2×10⁶/mL with FACS buffer (PBS+2% FBS). The cells were added to 3799 cell plates (Corning) at 100 μL/well, and the supernatant was discarded after centrifugation at 300 g. The antibodies were serially diluted with FACS buffer (Id.), the diluted antibodies were added to centrifuged cells and the cells were resuspended. The cells were incubated at 4° C. for 1 h. The incubated cells were centrifuged at 300 g for 5 min and washed twice with FACS buffer. 100 μL […] anti-Human IgG (H+L) Cross-Adsorbed Secondary Antibody-Alexa Fluor 488 (Sigma, A11013; 1:1000) secondary antibody was added, washed twice with FACS buffer after incubation at 4° C. for 1 h, resuspended with PBS, analyzed with FACS (BD FACS CantoTM II) instrument and curve fitted with GraphPad Prism6, and EC₅₀ values were calculated.
row,EC50 [nM],Binder
1,0.831,B8
2,0.549,B9
3,0.939,B10
4,5.17,B11
5,0.479,B12
6,0.583,B13
7,0.443,B14

# Target: T1, human BDCA2
# Assay: cell-based or functional assay
"IC50, inhibition of IFNα secretion, CpG-A stimulated human PBMC [nM]","IC50 for inhibiting cytokine IFNα release, CpG-A stimulated human PBMC [nM]",Binder
0.0185,–,B8
–,0.00274,B1
0.0168,–,B9
–,0.00615,B2
0.0324,–,B10
–,0.00623,B3
0.0149,–,B11
–,0.00332,B4
0.0127,–,B12
–,0.00405,B5
–,0.00476,B6
0.0164,–,B13
–,0.07,B7
0.00898,–,B14

# Target: T2, cynomolgus BDCA2
# Assay: FACS on 293F-cynoBDCA2 cells; EC50 table under the plot, unit from the x axis (nM) [continued) d.]
# Procedure: as §1
row,EC50 [nM],Binder
1,1.04,B1
2,1.9,B2
3,1.96,B3
4,0.485,B4
5,0.566,B5
6,0.566,B6
7,0.68,B7
